From a protein production outcome set (Wang et al. 2014)

Experiment: label from the status in PepcDB records
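Note: failed if final PepcDB status was selected cloned or expressed and not failed if soluble or beyond.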

| Sequence | protein production |
| --- | --- |
| MEGIDMLDIKLIRENPELVKNDLIKRGELEKVKWVDEILKLDTEWRTKLKEINRLRHERNKIAVEIGKRRKKGEPVDELLAKSREIVKRIGELENEVEELKKKIDYYLWRLPNITHPSVPVGKDENDNVPIRFWGKARVWKGHLERFLEQSQGKMEYEILEWKPKLHVDLLEILGGADFARAAKVSGSRFYYLLNEIVILDLALIRFALDRLIEKGFTPVIPPYMVRRFVEEGSTSFEDFEDVIYKVEDEDLYLIPTAEHPLAGMHANEILDGKDLPLLYVGVSPCFRKEAGTAGKDTKGIFRVHQFHKVEQFVYSRPEESWEWHEKIIRNAEELFQELEIPYRVVNICTGDLGYVAAKKYDIEAWMPGQGKFREVVSASNCTDWQARRLNIRFRDRTDEKPRYVHTLNSTAIATSRAIVAILENHQEEDGTVRIPKVLWKYTGFKEIVPVEKKERCCAT | not failed |
| MNTVPLKPQRLLSLDVFRGMTIVLMIFVNGQAAIDPYPIFEHVDWNGCTLADLVFPFFLFIVGLTSVISLKNQMERKAKTSLYSAIIERSVVLFLLGLFLNVFPHPIEFDSIRIYGILQRIAVCYLISAFIYLNTSIKTQFFIFLVLLLGYWIIMTQVPVPGYGANQLTKDGSWVSYFDQLFFSASHLYEKTYDPEGFLSTFTSIATTLSGVLAGSLLISPCNQFKKFYLLAGIGLLFLLLGWLWNMSFPINKNLWTSSYVLWTSGLALLAFAFCYLLIDRFGVKKWSVFFKVFGMNALFAFVFHVLLLKLQYAFKITTPDGSKMVLISYLKDYFFGGFSNHNAALLYSICFLFLNFLVVLILYKRNVFIRI | failed |
| MPSSRRVRSRCCAFGITKRFACIRPACQRARMDAQMTNFETRLRENAAKTEALLGHLLSGEARADEITRPQNLLEAMRHGVLNGGKRLRPFLVIESVALLGGDAEAGLHVGAALECLHCYSLVHDDLPAMDDDDLRRGQPTVHRKFDEATAILAGDSLLTLAFDIIASDDNPLAAERKAALVISLARAAGIGGMAGGQALDLAAEKKAPDEDGIITLQAMKTGALLRFACEAGAIIAGSNQAERQRLRLFGEKIGLSFQLADDLLDLTADAATMGKATGKDAARGKGTLVALRGEAWAREKLQE | not failed |
| MSTTQLKVKEINEELDSRPAVPPINDIRSYIAALEAHGVLHRVKAEVDWKFELAHISKVNEEQKGPALLYENVKGNTIPVFTSAFTTPERIAICLEQDPSLSMCQLSRKWMELTTKQMIKPTFVKNPPVMENIIEEKDVDLENFPAPWFYPDDGGRFFGTSGYLVTQDPDTGWTNLGTYRSQILGKNILGSQIISGKHGDFHMKKYQERGEKMPVAYVVGGDPILFLASSTLVSAQTDEYDVGGALRGRPIEVFKSDLTGLTLPANAEIIVEGWMDPEELMEEGPFGEYTGYYSGNKMKDYPKPVIRVKRIIHRNKPIFWSTTVGKPINDTHMVQSINRTATLWHDLETMKVPGIQSVYFPAAATGRFWVVASVKQMYPGHSNHVADAINGSTTGHYGVKGIIIVDHDIAADDMDRVWWALAVRFDPKRSTQIITRGRSTPLDPGLPIEARDVVSRIILDATIPYEWKNKPNEIFMDRTVLQKVSDRWNEYGFTGASPVAEMIPRLTRPEVKKK | failed |
| MLTFAPLNFLAIGVGATLGAWLRWVPGLRLNGAGWPWGTLTANLVGGYLIGVMVALIASHPEWPAWIRLAAVTGFLGGLTTFSTFSAETVDMLERGVYATAAAYAGASLAGSLAMTGLATVRLLLR | failed |
| YAMSIYAAQHDVRIVNPYFVPTSSIRKALKRALNRGTKVEIMISSKSDIPFTPDASLYAVQKLMKKGAMIYLYNGGFHHSKIMMVDDLFCTVGTANLNSRSLRYDYETNAFIFDKDITQQLNDVFEADMLHCTRLTPEMWKQKSAWKKFKCWFANLFTPFL | failed |
| MNWKRLVQFYSVPPSQAALALGMIGLGQAWALYVPDIGTPIRPFLASFGALLLAPVLIKYATNPRLFMADIKHPLSGSLMAPMSMALLILTDYLASVAPLIAYPLWCLAVLLHFTMMVLFFGFQLMNFKMSNIVPSWFLYPVGLISSSLAGSQFGHNLFSETLAIMCIGIYFFMLPLVLYRLVFFGSLPRRARPTLAIMAAPVNLSLAAYLVNFPQPDPILTGALAGIAITMTLLIYLCYFRLLRLKFQPSIAAVTFPSVISAIAMHRLTSFFAQSHPQWHWLHDFGFLELSIATVLVVWVSAGYVKMYWPEIVRTPTKQA | failed |
| MKTNAGRFFEDYRLGETIAHAVPRTVSGGERALYHALYPARHALSSSDEFARACGLPAAPVDELMAFHLVFGKTVPDISLNAVANLGYAEGRWLKPVFPGDTLRAESTVIGLKENSNGASGVVWVRTRGLNQQGEAVLSYVRWVMVRKRDTAAPAPAPTVPELAGSVAASDLVIPEGLSFTDYDLTLAGEPHRWGDYAVGEKIDHVDGVTVEESEHMLATRLWQNTAKVHFDATNRPDGRRLIYGGHVISLARTLSFNGLANAQMIVALNAGAHANPCFAGDTVRAWSEVLDKAETADPGVGALRLRLVAMKHGTEPFVTRSEDGKYLPGVLLDLDYWALVPR | failed |
| MANAVVAIAGSSGLIGSALTAALRAADHTVLRIVRRAPANSEELHWNPESGEFDPHALTDVDAVVNLCGVNIAQRRWSGAFKQSLRDSRITPTEVLSAAVADAGVATLINASAVGYYGNTKDRVVDENDSAGTGFLAQLCVDWETATRPAQQSGARVVLARTGVVLSPAGGMLRRMRPLFSVGLGARLGSGRQYMSWISLEDEVRALQFAIAQPNLSGPVNLTGPAPVTNAEFTTAFGRAVNRPTPLMLPSVAVRAAFGEFADEGLLIGQRAIPSALERAGFQFHHNTIGEALGYATTRPG | failed |
| MGNRSTADADGLLAGRGPAAGASAGASAGLAGQGAAALVGGVLLIGAVLAGNSLVCVSVATERALQTPTNSFIVSLAAADLLLALLVLPLFVYSEVQGGAWLLSPRLCDALMAMDVMLCTASIFNLCAISVDRFVAVAVPLRYNRQGGSRRQLLLIGATWLLSAAVAAPVLCGLNDVRGRDPAVCRLEDRDYVVYSSVCSFFLPCPLMLLLYWATFRGLQRWEVARRAKLHGRAPRRPSGPGPPSPTPPAPRLPQDPCGPDCAPPAPGLPRGPCGPDCAPAAPGLPPDPCGPDCAPPAPGLPQDPCGPDCAPPAPGLPRGPCGPDCAPPAPGLPQDPCGPDCAPPAPGLPPDPCGSNCAPPDAVRAAALPPQTPPQTRRRRRAKITGRERKAMRVLPVVVGAFLLCWTPFFVVHITQALCPACSVPPRLVSAVTWLGYVNSALNPVIYTVFNAEFRNVFRKALRACC | failed |
| MGHHHHHHSHMACYIYQLPSWVLDDLCRNMDALSEWDWMEFASYVITDLTQLRKIKSMERVQGVSITRELLWWWGMRQATVQQLVDLLCRLELYRAAQIILNWKPAPEIRCPIPAFPDSVK | failed |
| MNSCVLFAEVIQGPELRYTQENQMAVATMVVQFASLRSEEPPMSLRTVAWGNLGQKMHAECKVGDRLILEGRLKMDTIDRPEGFKEKRAELVVSRFYTVDGNIVDHPAQPAATVPVTPRVAPPPPEFEDISLDEVPFLEHHHHHH | not failed |
| MANHKPEIVITYCTQCQWLLRAAWLAQELLSTFADDLGRVALEPGTGGIFRITCNGVQIWERKADGGFPEAKVLKQRVRDQVDPQRDLGHNDR | not failed |
| MQEIMYLAPELVLVATGLVILLTGVFLSPQSKNILGYLATLGTLAAIFLTVKSFGLLTMEGFSVQYTIFSETLSIDALSQFFKLVFLAVALIVSIASIKYTENSDHTEEFYTLVLFATFGMMIVASANDLILLFCAFELASLATFALAGFEKQNARSLEGAMKYFVIGSVSAALMLFGLSFVYGATGTTSIPLIAQNPGLLTGNPIGIVAIVLLTAGFGFKMALVPFHMWAPDTYQGSPSVVSALLAAGSKKMGFVAAFRVFIIALAALQPDWQFMFTLLAVVTMTFGNVVAVAQTSVKRMLAYSSLAQAGYIAMAFAVMTPVALAGGIMYTLAHAFMKAGAFIAAAAVVWMITSEKTGNLDIPDHLDSFRGLGKRMPLAALCMTVFVFALAGIPPTAGFMAKFVLFSSTIQAGMTWLAVIAILNSALSLFYYARLVKYMYFMPPEGKTEKVSIPFPYAAALLVAVAGVLVMGLWPEPFVELAMKAAMVLVPF | failed |
| YTSADNTWEPEENCDCPNLIQKFEESRAKSKKRGEKKPKCEEIQKLRGYERGLELAEIVGATDVTGDIKYLVRWQFCDEFDLVPSAQIVEKDPQMLIDYFQK | failed |
| MATEATTKFPESDLRPIPQPPDFHPAIIVPAQNTTLKFWQLMVAGSIAGSVEHMAMFPVDTVKTHMQALRSCPIKPIGIRQAFRSIIKTDGPSALYRGIWAMGLGAGPAHAVYFSFYEVSKKFLSGGNPNNSAAHAISGVFATISSDAVFTPMDMVKQRLQIGNGTYKGVWDCIKRVTREEGFGAFYASYRTTVLMNAPFTAVHFTTYEAVKRGLREMLPEHAVGAEDEEGWLIYATAGAAAGGLAAAVTTPLDVVKTQLQCQGVCGCDRFKSSSISDVFRTIVKKDGYRGLARGWLPRMLFHAPAAAICWSTYETVKSFFQDLNGEANAA | failed |
| MQQHSSKTAYVYSDKLLQYRFHDQHPFNQMRLKLTTELLLNANLLSPEQIVQPRIATGDELMLIHKYDYVEAIKHASHGIISEDEAKKYGLNDEENGQFKHMHRHSATIVGGALTLADLIMSGKVLNGCHLGGGLHHAQPGRASGFCIYNDIAITAQYIAKEYNQRVLIIDTDAHHGDGTQWSFYADNHVTTYSIHETGKFLFPGSGHYTERGEDIGYGHTVNVPLEPYTEDASFLECFKLTVEPVVKSFKPDIILSVNGVDIHYRDPLTHLNCTLHSLYEIPYFVKYLADSYTNGKVIMFGGGGYNIWRVVPRAWSHVFLSLIDQPIQSGYLPLEWINKWKHYSSELLPKRWEDRLNDYTYVPRTKEISEKNKKLALHIASWYESTRQLEHHHHHH | failed |
| EFYCEVLLLDESKLTLTTQQQGIKKSTKGSVVLDHVFHHVNLVEIDYFGLRYCDRSHQTYWLDPAKTLAEHKELINTGPPYTLYFGIK | failed |
| MGLRDAEVRRAWAARLASWLPAPPGDVLDLGCGTGSLSLLAAEQGHRVTGVDLSPAMVELARTKLAGRDAVFLTGDAAAPPVGEQRFDAVLVRHVLWTLPDPGRALRHWRQLLRPGGRLVLVEGVWGSVSPVGIPADRVTALLGPLTGQARVERLSDDPSLWGREVADERYAVVATYGLEHHHHHH | failed |
| MYEITATIVTYKNPDSVLLKAINSFLNTKLEVRLYIIDNSPTDYLKDISYDPRVEYIFMNSNNGFGAGHNVILRDPEKMGKYHLILNPDISFEEGTLEKLYDYMEGKLDVGNVMPKVIYPNGELQYLCKLLPTPKDWIVRMFLPIKSIKNRIDYNFEMKFADYDREMNIPYLSGCFMFLRKSVIEGIGVFDEGIFMYGEDTDLNRRIYRKYKTMYYPQVTITHHFEKGSHKSLRLLWIHVKAAIYYLNKWGWFFDKERSIINITVKQQYIRKLEHHHHHH | not failed |
| MLTLIKRTVLAAGLIGTTLGAAAQPPRAYPLKDFFRNPERGYFRLADDGKTLGFMQPVSIDGQPPRMNIYVQALADGVPAGEPRKLTSETARDISNFFWKGDDTVLYQKDFGGDENFHVLAVNARTGQVADLTPYEGVRASIEDDLPDDPDHVLISHNRRDPQVFDVYRVNVRTGAAELVAQNPGNVVGWQTDHAGKVRAAITSDGLNTTLLYRDDEAAPFRPLITTDYRVSVSPAFFTFDDRKLYALSNRGRDKLALVVIDPATPDVEQPVFEPDEVDLDAAGYSRKRKVLTVASYQTDKPRHRFFDAETEALYARLARALPGYDFALQGWNRDEDTFIVAAYNDRTPGSRYLYDARRDSLHKLADINPAIPEADMAPVRPVSYQSRDGLTIHGYLTLPAGRAPRNLACIVNPHGGPWARDGWGYNPEVQFLANRGFCVLQMNFRGSTGYGRKFWEAGFGQWGLKMQDDITDGVQWLIDQGIADPRRIGIYGGSYGGYATLAGVAFTPDLYAAAVDYVGVSNLFTFMNTIPPYWKPLLAKMQDMVGDPVRDKARLEATSPALHVDRIKTPLFIAQGAKDPRVNKAESDQVVQALRQRGVEVEYMVKDNEGHGFHNDENKFEFYAAMEKFFTEHLKP | failed |
